The labels stand for the following.
B1: DLC1 (parent)
chain: HVTHWMGQPFNSDDRNTACHHGLV
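Note: lentivirally expressed fusions sorted by FACS into six bins by GFP to DsRed ratio, PSI derived from sequencing read proportions per bin multiplied by bin number.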

The data set covers variants of B1. Description: protein stability index of a GFP-peptide fusion (GPS, HEK-293T) (PSI 1-6); higher = more stable. The note with it: c terminus: a fixed tail appended.
On to HVTHWMGQDFNSDDRNTACHHGLV [P9D], for which the protein stability index is 1.99.
As for HVTHWMGQAFNSDDRNTACHHGLV [P9A], the figure is 2.36.
As for HVTHWMGQFFNSDDRNTACHHGLV [P9F], the figure is 1.43; as for HVTHWMGQEFNSDDRNTACHHGLV [P9E], 2.3.
As for HVTHWMGQPFESDDRNTACHHGLV [N11E], the figure is 2.58; as for HVTHWMGQPFWSDDRNTACHHGLV [N11W], 3.88; as for HVTHWMGQPFKSDDRNTACHHGLV [N11K], 1.86.
On to PVTHWMGQPFNSDDRNTACHHGLV [H1P], for which the protein stability index was 3.08.
For the variant GVTHWMGQPFNSDDRNTACHHGLV [H1G], the protein stability index worked out at 3.08.
Then CVTHWMGQPFNSDDRNTACHHGLV [H1C], with 2.04.
For HVTDWMGQPFNSDDRNTACHHGLV [H4D], the protein stability index is 2.49.
As for HVTLWMGQPFNSDDRNTACHHGLV [H4L], the figure is 1.7.
As for HVTEWMGQPFNSDDRNTACHHGLV [H4E], the protein stability index is 2.63.
Then HVTFWMGQPFNSDDRNTACHHGLV [H4F], with 1.72.
Then HVTHWMGQPFNSIDRNTACHHGLV [D13I], with 1.92; and HVTHWMGQPFNSKDRNTACHHGLV [D13K], with 2.32.
Turning to HVTHWMGQPFNSHDRNTACHHGLV [D13H], the protein stability index is 1.77.
As for HVTHWMGQPFNSYDRNTACHHGLV [D13Y], the figure is 2.26; as for HVWHWMGQPFNSDDRNTACHHGLV [T3W], 1.4; as for HVYHWMGQPFNSDDRNTACHHGLV [T3Y], 1.91.
Then HVAHWMGQPFNSDDRNTACHHGLV [T3A], with 2.5.
Then HVFHWMGQPFNSDDRNTACHHGLV [T3F], with 1.69; and HVTHWIGQPFNSDDRNTACHHGLV [M6I], with 2.12.
HVTHWLGQPFNSDDRNTACHHGLV [M6L]: the protein stability index came out at 1.93.
As for HVTHWDGQPFNSDDRNTACHHGLV [M6D], the figure is 3.03; as for HVTHWMGQPFNSDDRNTLCHHGLV [A18L], 1.56.
Then HVTHWMGQPFNSDDRNTWCHHGLV [A18W], with 1.88; and HVTHWMGHPFNSDDRNTACHHGLV [Q8H], with 2.32.
HVTHWMGSPFNSDDRNTACHHGLV [Q8S]: the protein stability index was determined as 2.15.
As for HVTHWMGFPFNSDDRNTACHHGLV [Q8F], the figure is 2.05; as for HVTHWMGAPFNSDDRNTACHHGLV [Q8A], 2.26; as for HVTHWMGQPFNSDDRNTACHHGLE [V24E], 2.5.
Take HVTHWMGQPFNSDDRNTACHHGLT [V24T]: the protein stability index was found to be 2.39.
As for HVTHWMGQPFNSDDRNTACHHGLY [V24Y], the figure is 1.69; as for HVTHWMGQPFNSDDRNTACHYGLV [H21Y], 1.85.
With HVTHWMGQPFNSDDRNTACHAGLV [H21A], the protein stability index worked out at 2.38.
Regarding HVTHWMGQPFNSDDRNTACHPGLV [H21P], the protein stability index was 1.95.
As for HVTHWMGQPFNSDDRNTACHVGLV [H21V], the figure is 1.9; as for HVTHWMGQPFNSDDRNTACHCGLV [H21C], 2.69; as for HVTHWMGQPFNSDDRNTACHLGLV [H21L], 1.93.
Then HVTHWMGQPFNSDDRWTACHHGLV [N16W], with 1.3.
Regarding HVTHWMGQPFNSDDRLTACHHGLV [N16L], the protein stability index was 1.8.
Then HVTHWMGQPFNSDDRKTACHHGLV [N16K], with 1.98; and HVTHWMGQPFNSDDRNDACHHGLV [T17D], with 2.65.
Then HVTHWMGQPFNSDDRNPACHHGLV [T17P], with 2.17; and HVTHWMGQPFNSDDRNWACHHGLV [T17W], with 1.82; and HVTHWMYQPFNSDDRNTACHHGLV [G7Y], with 1.88.
Then HVTHWMKQPFNSDDRNTACHHGLV [G7K], with 1.89; and HVTHWMCQPFNSDDRNTACHHGLV [G7C], with 2.02; and HVTHWMDQPFNSDDRNTACHHGLV [G7D], with 2.46.
HVTHWMFQPFNSDDRNTACHHGLV [G7F]: the protein stability index came to 2.45.
On to HVTHWMGQPFNSDDHNTACHHGLV [R15H], for which the protein stability index came to 2.06.
For HVTHWMGQPFNSDDGNTACHHGLV [R15G], the protein stability index worked out at 1.94.
As for HVTHWMGQPFNSDDCNTACHHGLV [R15C], the figure is 1.99; as for HVTHWMGQPFNSDDNNTACHHGLV [R15N], 2.38.
Then HVTHWMGQPFNSDDQNTACHHGLV [R15Q], with 2.01; and HVTHWMGQPFNSDDFNTACHHGLV [R15F], with 2.25; and HVTHWMGQPFNSDDWNTACHHGLV [R15W], with 1.73.
Then HVTHWMGQPFNYDDRNTACHHGLV [S12Y], with 1.78.
HVTHWMGQPFNFDDRNTACHHGLV [S12F]: the protein stability index is 1.85.
Then HVTHWMGQPFNEDDRNTACHHGLV [S12E], with 2.52; and HVTHWMGQPFNNDDRNTACHHGLV [S12N], with 2.55.
As for HVTHWMGQPFNRDDRNTACHHGLV [S12R], the protein stability index amounted to 2.01.
As for HVTHWMGQPFNHDDRNTACHHGLV [S12H], the figure is 2.04; as for HVTHWMGQPFNSDDRNTAFHHGLV [C19F], 1.25.
As for HVTHWMGQPFNSDDRNTAKHHGLV [C19K], the figure is 2.2.
Turning to HVTHWMGQPFNSDDRNTAGHHGLV [C19G], the protein stability index was found to be 1.96.
As for HVTHWMGQPFNSDDRNTAWHHGLV [C19W], the figure is 1.48; as for HVTHWMGQPANSDDRNTACHHGLV [F10A], 2.53; as for HVTHWMGQPDNSDDRNTACHHGLV [F10D], 3.03.
HVTHGMGQPFNSDDRNTACHHGLV [W5G]: the protein stability index was 3.89.
As for HVTHIMGQPFNSDDRNTACHHGLV [W5I], the figure is 3.02; as for HWTHWMGQPFNSDDRNTACHHGLV [V2W], 1.98; as for HMTHWMGQPFNSDDRNTACHHGLV [V2M], 2.71.
HVTHWMGQPFNSDDRNTACNHGLV [H20N]: the protein stability index was determined as 2.2.
Then HVTHWMGQPFNSDDRNTACDHGLV [H20D], with 2.36; and HVTHWMGQPFNSDDRNTACPHGLV [H20P], with 2.5.
Then HVTHWMGQPFNSDDRNTACKHGLV [H20K], with 2.41.
As for HVTHWMGQPFNSDDRNTACRHGLV [H20R], the figure is 2.25; as for HVTHWMGQPFNSDDRNTACQHGLV [H20Q], 2.46; as for HVTHWMGQPFNSDFRNTACHHGLV [D14F], 2.35.
For the variant HVTHWMGQPFNSDGRNTACHHGLV [D14G], the protein stability index was 1.86.
HVTHWMGQPFNSDHRNTACHHGLV [D14H]: the protein stability index stood at 2.66.
For the variant HVTHWMGQPFNSDMRNTACHHGLV [D14M], the protein stability index stood at 1.64.
As for HVTHWMGQPFNSDDRNTACHHTLV [G22T], the figure is 2.1; as for HVTHWMGQPFNSDDRNTACHHMLV [G22M], 1.96; as for HVTHWMGQPFNSDDRNTACHHLLV [G22L], 2.23.
Then HVTHWMGQPFNSDDRNTACHHGAV [L23A], with 2.51; and HVTHWMGQPFNSDDRNTACHHGKV [L23K], with 2.27.
Then HVTHWMGQPFNSDDRNTACHHGMV [L23M], with 2.13.
With HVTHWMGQPFNSDDRNTACHHGWV [L23W], the protein stability index stood at 1.86.
Then HVTHWMGQPFNSDDRNTACHHGSV [L23S], with 2.24; and HVTHWMGQPFNSDDRNTACHHGDV [L23D], with 2.84.
With HVTHWMGQPFNSDDRNTACHHGPV [L23P], the protein stability index worked out at 2.17.

The record behind these values is the supplement of paper PMC10567573.
